In assay [1] the target is Haliangium ochraceum encapsulated ferritin (Haliangium ochraceum) (UniProt D0LZ73). Briefly: SDS-PAGE; purified Loaded-Enc on 15% acrylamide SDS-PAGE, Coomassie blue stain.
For assay [2], the target named is Haliangium ochraceum encapsulin (Haliangium ochraceum) (UniProt D0LZ74). Briefly: HDX-MS; Empty-Enc against Loaded-Enc nanocompartments; labelling in phosphate buffer in D2O pH 8.0 at 4 C, up to 24 hours; pepsin digestion.
The target is the same in assay [3]. The experiment in a line: cryo-EM structure; Loaded-Enc; asymmetric (C1) reconstruction without imposed symmetry, 3.7 A; local refinement of a single EncFtn density in CryoSPARC with PDB 5N5F docked. The following applies: scale: EncFtn decamers per encapsulin nanocompartment.
Assay [4] concerns the target Haliangium ochraceum encapsulated ferritin (Haliangium ochraceum) (UniProt D0LZ73). Described as above.
Assay [5] shares this target. The experiment in a line: LC-MS; purified Loaded-Enc at ~2 uM on a reverse-phase C4 column, water/acetonitrile with 0.1% formic acid; deconvoluted masses.
Assay [6] has as its target Haliangium ochraceum encapsulin (Haliangium ochraceum) (UniProt D0LZ74). Briefly: cryo-EM structure; Loaded-Enc (3 mg/ml) vitrified; reconstruction with imposed I1 symmetry (2.5 A), then symmetry expansion and masked focused refinement of the fivefold pentamer (closed 2.2 A, open 2.4 A), Relion3.1.

Broadly, the stoichiometry N is a count of units in the complex or per binding partner. Turning to “Haliangium ochraceum encapsulated ferritin (from UniProt D0LZ73 1-131) (enzyme)”, the stoichiometry N in assay [1] came out at 2; in assay [3] it was 4; in assay [4], 10; in assay [5] it was 2. In assay [2], this substance returned a reduction in hydrogen/deuterium exchange of encapsulin peptide 21-37, Loaded-Enc against Empty-Enc of 12%.

As to “Haliangium ochraceum encapsulin (from UniProt D0LZ74 1-266) (natural protein)”, the stoichiometry N in assay [6] was 60.

The values above are taken from publication PMC8791618.
